Experimental findings from FireProtDB (doi:10.1002/prot.1088) are described below.

Sequences and labels used below:
B1: Lysozyme C, P61626 (parent)
chain: MKALIVLGLVLLSVTVQGKVFERCELARTLKRLGMDGYRGISLANWMCLAKWESGYNTRATNYNAGDRSTDYGIFQINSRYWCNDGKTPGAVNACHLSCSALLQDNIADAVACAKRVVRDPQGIRAWVAWRNRCQNRDVRQYVQGCGV

Values joined by “and” are separate entries in the source; they are usually repeats but may differ in a detail not shown here. Equal entries are not always repeated.

The variants in one data set derive from B1. Particulars: Homo sapiens; pH 2.7; 64.9 °C; Thermal; DSC; Gly-HCl 0.05 M; reversible: yes; structure 1LZ1; whole UniProt chain shown.
Turning to Y56A, the “ddG of mutation (higher = less stable)” value was 2.49 kcal/mol.
Same read-out and setting: with Y56G the figure was 2.32 kcal/mol; with R68A, -0.43 kcal/mol.
The same measure, in the same setting: with N136G the figure was -0.05 kcal/mol; with N136A, -0.19 kcal/mol.
The same measure, in the same setting: with H96A the figure was 0.14 kcal/mol; with R39G, -1.15 kcal/mol.
Consider Q76A, for which the “ddG of mutation (higher = less stable)” value is -0.91 kcal/mol.

Staying with this data set, now noted: Homo sapiens; pH 2.7; Thermal; DSC; Gly-HCl 0.05 M; reversible: yes; structure 1LZ1; whole UniProt chain shown.
Regarding Y56A, the midpoint of thermal melting (Tm) came out at 56 °C; the “change of melting temperature, mutant - wild type (higher = more stable)” value (“change of melting temperature, mutant” below) was -8.9 °C; the “heat capacity change of unfolding” value came out at 0.98 kcal/mol/K; the “unfolding enthalpy (calorimetric)” value came to 96.8 kcal/mol.
The corresponding values for Y56G are 56.7 °C, -8.2 °C, 0.96 kcal/mol/K and 96.8 kcal/mol.
For the variant R68A, the midpoint of thermal melting (Tm) is 66.3 °C; the “change of melting temperature, mutant” value is 1.4 °C; the “heat capacity change of unfolding” value stood at 1.51 kcal/mol/K; the “unfolding enthalpy (calorimetric)” value turned out to be 104 kcal/mol.
Regarding N136G, the Tm amounted to 65.1 °C; the “change of melting temperature, mutant” value turned out to be 0.2 °C; the “heat capacity change of unfolding” value was 1.65 kcal/mol/K; the “unfolding enthalpy (calorimetric)” value worked out at 101 kcal/mol.
For N136A the same measures were 65.5 °C, 0.6 °C, 1.24 kcal/mol/K and 104 kcal/mol.
H96A: the Tm was 64.3 °C and 64.4 °C; the “change of melting temperature, mutant” value was -0.5 °C; the “heat capacity change of unfolding” value turned out to be 1.51 kcal/mol/K; the “unfolding enthalpy (calorimetric)” value came out at 103 kcal/mol. Also, the “unfolding enthalpy (van 't Hoff)” value worked out at 112 kcal/mol.
For R39A, the Tm worked out at 69.4 °C; the “change of melting temperature, mutant” value was 4.5 °C; the “heat capacity change of unfolding” value came out at 1.82 kcal/mol/K; the “unfolding enthalpy (calorimetric)” value stood at 96.6 kcal/mol.
Regarding R39G, the Tm turned out to be 68.6 °C; the “change of melting temperature, mutant” value amounted to 3.7 °C; the “heat capacity change of unfolding” value worked out at 1.74 kcal/mol/K; the “unfolding enthalpy (calorimetric)” value came out at 103 kcal/mol.
On to Q76A, for which the Tm was 67.8 °C and 68 °C; the “change of melting temperature, mutant” value was determined as 3.1 °C; the “heat capacity change of unfolding” value turned out to be 1.65 kcal/mol/K; the “unfolding enthalpy (calorimetric)” value was 104 kcal/mol and 98.2 kcal/mol. The “unfolding enthalpy (van 't Hoff)” value was determined as 113 kcal/mol.

The data set is the same for the next values; noted with them: Homo sapiens; pH 2.72; Thermal; DSC; Gly-HCl 0.05 M; reversible: yes; structure 1LZ1; whole UniProt chain shown.
On to Y56A, for which the midpoint of thermal melting (Tm) was 56.3 °C, the “unfolding enthalpy (calorimetric)” value turned out to be 88 kcal/mol and the “unfolding enthalpy (van 't Hoff)” value turned out to be 89.2 kcal/mol.

Staying with this data set, now noted: Homo sapiens; pH 3; Thermal; DSC; Gly-HCl 0.05 M; reversible: yes; structure 1LZ1; whole UniProt chain shown.
Take Y56A: the Tm is 61.7 °C, the “unfolding enthalpy (calorimetric)” value was found to be 94.4 kcal/mol and the “unfolding enthalpy (van 't Hoff)” value is 96.3 kcal/mol.
For R68A the same measures were 70.9 °C, 114 kcal/mol and 121 kcal/mol.
For H96A the same measures were 69.5 °C, 110 kcal/mol and 117 kcal/mol.

Staying with this data set, now noted: Homo sapiens; pH 3.18; Thermal; DSC; Gly-HCl 0.05 M; reversible: yes; structure 1LZ1; whole UniProt chain shown.
Y56A: the midpoint of thermal melting (Tm) was determined as 65 °C, the “unfolding enthalpy (calorimetric)” value was 96.3 kcal/mol and the “unfolding enthalpy (van 't Hoff)” value stood at 97.5 kcal/mol.

Staying with this data set, now noted: Homo sapiens; pH 2.5; Thermal; DSC; Gly-HCl 0.05 M; reversible: yes; structure 1LZ1; whole UniProt chain shown.
Consider Y56G, for which the Tm was found to be 53 °C, the “unfolding enthalpy (calorimetric)” value is 85.8 kcal/mol and the “unfolding enthalpy (van 't Hoff)” value is 87 kcal/mol.
The corresponding values for R68A are 62.8 °C, 101 kcal/mol and 108 kcal/mol.
For H96A the same measures were 61.1 °C, 97.5 kcal/mol and 107 kcal/mol.
For R39G the same measures were 64.6 °C, 102 kcal/mol and 107 kcal/mol.
With Q76A, the Tm came out at 64.5 °C, the “unfolding enthalpy (calorimetric)” value was 97 kcal/mol and the “unfolding enthalpy (van 't Hoff)” value is 103 kcal/mol.

The data set is the same for the next values; noted with them: Homo sapiens; pH 2.78; Thermal; DSC; Gly-HCl 0.05 M; reversible: yes; structure 1LZ1; whole UniProt chain shown.
Consider Y56G, for which the Tm worked out at 58.5 °C, the “unfolding enthalpy (calorimetric)” value was 90.1 kcal/mol and the “unfolding enthalpy (van 't Hoff)” value was found to be 92.3 kcal/mol.

The data set is the same for the next values; noted with them: Homo sapiens; pH 3.24; Thermal; DSC; Gly-HCl 0.05 M; reversible: yes; structure 1LZ1; whole UniProt chain shown.
Consider Y56G, for which the Tm was 65.6 °C, the “unfolding enthalpy (calorimetric)” value was 97.8 kcal/mol and the “unfolding enthalpy (van 't Hoff)” value stood at 99.7 kcal/mol.

Staying with this data set, now noted: Homo sapiens; pH 2.71; Thermal; DSC; Gly-HCl 0.05 M; reversible: yes; structure 1LZ1; whole UniProt chain shown.
For R68A, the Tm stood at 66.6 °C, the “unfolding enthalpy (calorimetric)” value came to 106 kcal/mol and the “unfolding enthalpy (van 't Hoff)” value came out at 113 kcal/mol.
For R39A the same measures were 69.8 °C, 106 kcal/mol and 113 kcal/mol.

Still in this data set, the particulars now being: Homo sapiens; pH 2.84; Thermal; DSC; Gly-HCl 0.05 M; reversible: yes; structure 1LZ1; whole UniProt chain shown.
As for R68A, the Tm worked out at 69.1 °C, the “unfolding enthalpy (calorimetric)” value was determined as 109 kcal/mol and the “unfolding enthalpy (van 't Hoff)” value was 117 kcal/mol.

The data set is the same for the next values; noted with them: Homo sapiens; pH 2.74; Thermal; DSC; Gly-HCl 0.05 M; reversible: yes; structure 1LZ1; whole UniProt chain shown.
For N136G, the Tm stood at 65.7 °C, the “unfolding enthalpy (calorimetric)” value was 103 kcal/mol and the “unfolding enthalpy (van 't Hoff)” value was found to be 110 kcal/mol.
The corresponding values for N136A are 66.2 °C, 107 kcal/mol and 112 kcal/mol.

Staying with this data set, now noted: Homo sapiens; pH 2.95; Thermal; DSC; Gly-HCl 0.05 M; reversible: yes; structure 1LZ1; whole UniProt chain shown.
For N136G, the Tm worked out at 69.3 °C, the “unfolding enthalpy (calorimetric)” value amounted to 107 kcal/mol and the “unfolding enthalpy (van 't Hoff)” value is 115 kcal/mol.

The same data set, now with this note: Homo sapiens; pH 3.1; Thermal; DSC; Gly-HCl 0.05 M; reversible: yes; structure 1LZ1; whole UniProt chain shown.
Regarding N136G, the midpoint of thermal melting (Tm) was 71.6 °C, the “unfolding enthalpy (calorimetric)” value was 113 kcal/mol and the “unfolding enthalpy (van 't Hoff)” value is 119 kcal/mol.
Take Q76A: the Tm is 75.1 °C, the “unfolding enthalpy (calorimetric)” value stood at 115 kcal/mol and the “unfolding enthalpy (van 't Hoff)” value stood at 123 kcal/mol.

Staying with this data set, now noted: Homo sapiens; pH 2.51; Thermal; DSC; Gly-HCl 0.05 M; reversible: yes; structure 1LZ1; whole UniProt chain shown.
Consider N136A, for which the midpoint of thermal melting (Tm) is 62.1 °C, the “unfolding enthalpy (calorimetric)” value was found to be 99.9 kcal/mol and the “unfolding enthalpy (van 't Hoff)” value stood at 106 kcal/mol.
The corresponding values for R39A are 66.1 °C, 98.7 kcal/mol and 107 kcal/mol.

The data set is the same for the next values; noted with them: Homo sapiens; pH 2.87; Thermal; DSC; Gly-HCl 0.05 M; reversible: yes; structure 1LZ1; whole UniProt chain shown.
For the variant N136A, the melting temperature (Tm) was found to be 68.6 °C, the “unfolding enthalpy (calorimetric)” value came out at 109 kcal/mol and the “unfolding enthalpy (van 't Hoff)” value was 117 kcal/mol.

Staying with this data set, now noted: Homo sapiens; pH 3.02; Thermal; DSC; Gly-HCl 0.05 M; reversible: yes; structure 1LZ1; whole UniProt chain shown.
N136A: the midpoint of thermal melting (Tm) is 70.9 °C, the “unfolding enthalpy (calorimetric)” value came to 111 kcal/mol and the “unfolding enthalpy (van 't Hoff)” value stood at 118 kcal/mol.

The data set is the same for the next values; noted with them: Homo sapiens; pH 3.23; Thermal; DSC; Gly-HCl 0.05 M; reversible: yes; structure 1LZ1; whole UniProt chain shown.
For the variant R39A, the melting temperature (Tm) is 77.6 °C, the “unfolding enthalpy (calorimetric)” value was found to be 120 kcal/mol and the “unfolding enthalpy (van 't Hoff)” value was 129 kcal/mol.

Staying with this data set, now noted: Homo sapiens; pH 2.69; Thermal; DSC; Gly-HCl 0.05 M; reversible: yes; structure 1LZ1; whole UniProt chain shown.
With R39G, the Tm worked out at 68.2 °C, the “unfolding enthalpy (calorimetric)” value was 109 kcal/mol and the “unfolding enthalpy (van 't Hoff)” value was determined as 113 kcal/mol.

Still in this data set, the particulars now being: Homo sapiens; pH 2.81; Thermal; DSC; Gly-HCl 0.05 M; reversible: yes; structure 1LZ1; whole UniProt chain shown.
As to R39G, the Tm turned out to be 70.9 °C, the “unfolding enthalpy (calorimetric)” value worked out at 113 kcal/mol and the “unfolding enthalpy (van 't Hoff)” value was 116 kcal/mol.

For orientation: Tm means the temperature at which the thermal transition is half complete.
